From US20200277373A1, “ANTI-TREM2 ANTIBODIES AND METHODS OF USE THEREOF” (Denali Therapeutics Inc., priority 2017, published 2020)

T1: TREM2 (Homo sapiens, UniProt Q9NZC2)
T1 construct: macrophage cells that endogenously express TREM2; endogenous in cells; host or cells: primary human monocyte-derived macrophages from donor blood
T1 sequence (Q9NZC2 19-230): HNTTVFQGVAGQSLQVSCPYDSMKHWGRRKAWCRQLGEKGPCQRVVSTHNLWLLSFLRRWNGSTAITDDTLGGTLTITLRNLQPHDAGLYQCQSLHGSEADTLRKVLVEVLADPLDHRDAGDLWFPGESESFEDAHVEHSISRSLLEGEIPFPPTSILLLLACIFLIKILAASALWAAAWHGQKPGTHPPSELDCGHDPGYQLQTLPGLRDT

T2: hTREM2 (Homo sapiens, UniProt Q9NZC2)
T2 construct: The ecto domain (residues 19-172) of TREM2 (UniProtKB—Q9NZC2); secretion signal of mouse Ig kappa chain V-III (P01661 aa 1-20) (N); made in house; host or cells: Expi293F
T2 sequence (Q9NZC2 19-172): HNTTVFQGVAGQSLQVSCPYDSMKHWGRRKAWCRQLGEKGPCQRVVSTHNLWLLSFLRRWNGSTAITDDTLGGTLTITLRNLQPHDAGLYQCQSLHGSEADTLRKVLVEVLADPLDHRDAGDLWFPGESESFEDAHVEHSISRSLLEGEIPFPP


Legend:
human macrophages [1] = test: Signaling pathway Alpha-LISA (pSYK, pERK1/2, pGSK3-beta, pAKT) in human macrophages; assay type: cell-based; conditions: 15 minutes
Protocol: Anti-TREM2 antibodies were characterized for activation of several signaling pathways, SYK, ERK1/2, AKT and GSK3-beta. Human macrophages differentiated from peripheral monocytes were plated in 96-well plates at a density of 100,000 cell/well. The assay was tested in three conditions (0%, 0.5%, and 10% FBS in the media) for 3 hours. Cells were stimulated with the antibody RS9.F6, 24B4.A1, 8A11.B1, 3D3.A1, 54C2.A1, isotype control IgG2ak, rat anti-TREM2 from R&D, isotype control rat IgG2b, or no treatment (NT) for 15 minutes. The cell lysates were measured for p-Y525/526-SYK, p-T202/Y204-ERK1/2, p-S9-GSK3-beta, and p-S473-AKT using Alpha-LISA kits (Perkin Elmer). […] The antibodies stimulated p-GSK signal moderately (FIG. 6C).

human macrophages [2] = test: Cell survival assay, human monocyte-derived macrophages, restricted or no M-CSF, CellTiter Glo; assay type: cell-based; conditions: plate coated antibody, 5 ng/mL or no M-CSF, day 6
Protocol: TREM2 can support microglia energy homeostasis (Ulland et al., Cell, 2017, 170:649-663). […] To understand if enhancing TREM2 activity with TREM2 agonistic antibodies is sufficient for macrophage/microglia survival under limited M-CSF conditions, human macrophage differentiation and survival studies were performed using antibodies as described herein. Human monocytes isolated from peripheral blood were incubated with 5 ng/mL M-CSF in the presence of titrated concentrations of plate coated TREM2 antibodies or isotype controls. On day 6 cell viability was determined by CellTiter Glo viability assay.

TREM2 [3] = target: T1, TREM2; test: TREM2 pSyk antagonist assay on human macrophages (antibody pre-incubation, then liposomes); assay type: cell-based; conditions: FIGS. 9C-9D, 30 nM antibody
Protocol: Human macrophages were differentiated from donor blood using a human monocyte enrichment cocktail (Stem Cell Technologies) and culturing monocytes with human mCSF for five days in macrophage media (RPMI+10% Hyclone FBS+Glutamax+Pen/Strep+non-essential amino acids+sodium pyruvate). On the fifth day, the human macrophages were scraped from the flasks and were re-plated at 100,000 cells/well on a 96-well poly-D-lysine-coated plate in the macrophage media (without mCSF). The cells were incubated for 24 hours to adhere, then the media was removed.
Antibodies diluted in RPMI alone were immediately added to the cells, and allowed to incubate for 30 minutes at 37° C. The antibodies were then removed. Lipid vesicles comprised of 70% DOPC and 30% POPS (made according to the procedure for making vesicles described above) in HBSS were added to the cells and incubated […] at 37° C. The liposome/antibody solution was removed, and 35 μL lysis buffer (Cell Signaling Technologies, CST) was added using the liquid handler. The lysate was then incubated at 4° C. for 30 minutes, then either frozen at −80° C. or immediately carried forward to a pSyk AlphaLISA assay as described above.

soluble TREM2 (sTREM2) = target: T3, soluble TREM2 (sTREM2) (Homo sapiens, UniProt Q9NZC2); test: Soluble TREM2 (TREM2 shedding) assay in HEK293 TREM2/DAP12 cells; assay type: cell-based; design: key to STREM2: NC = no change; −− = reduced sTREM2; ++ = increased sTREM2; conditions: change in sTREM2 levels
T3 construct: expressed in transfected cells
Protocol: HEK293 cells stably expressing human TREM2 and DAP12 were plated onto 96-well plates pre-coated with poly-D-lysine 4-16 hours prior to antibody treatment. Antibody supernatants or control antibodies were diluted into fresh complete media and added onto cells in triplicate. Cells were incubated with antibody containing media for 18 hours prior to removal of the cell supernatant for assay by TREM2 ELISA. Samples and standards were diluted 1:10 into blocking buffer (3% BSA/TBST) in the assay plate. Briefly, MSD small spot streptavidin plates were coated with biotinylated anti-hTREM2 polyclonal antibody (R&D Systems) overnight at 4° C. or 1 hour at room temperature. Plates were then blocked overnight at 4° C., or 1 hour at room temperature, with blocking buffer, 3% BSA/TBST. Plates were washed three times with TBST in a Biotek plate washer (used for all washes) prior to addition of diluent (blocking buffer) and denatured supernatants from cell culture. A TREM2-His protein diluted in 3% BSA/TBST was used as a standard for absolute quantification. Following 1 hour incubation at room temperature, plates were washed with TBST. The primary detection antibody, sulfo-tagged goat anti-human TREM2 (R&D Systems), diluted in 3% BSA/TBST was added and incubated for 1 hour at room temperature. After washing with TBST, MSD plates were developed using 2×MSD read buffer T, followed by detection using an MSD Sector plate reader. MSD values were converted to absolute quantities of sTREM2 by fitting a standard curve using Prism 7.0 software (Graphpad). Modulation of TREM2 shedding was represented as a ratio to cells cultured with no specific TREM2 antibody in the media.

hTREM2 [4] = target: T2, hTREM2; test: Octet binning (competition with R&D antibody on biotinylated TREM2-His); assay type: binding; conditions: epitope bin, 100 nM
Protocol: Competition with R&D antibody was done by Octet Red using biotinylated human Trem2-His protein generated in house. Biotinylated human TREM2-His protein was captured on a streptavidin tip, and the tip was then incubated in either 100 nM of R&D Ab or buffer for 3 minutes, followed by incubation for 3 minutes in 100 nM of testing hybridoma. The difference of hybridoma binding curve with or without pre-binding to R&D antibody was analyzed to determine the epitope.

TREM2 [5] = target: T4, TREM2 (Homo sapiens, UniProt Q9NZC2); test: FACS binning on human TREM2-HEK cells (competition with R&D antibody); assay type: binding; conditions: epitope bin, 100 nM antibody
T4 construct: expressed in transfected cells
Protocol: HEK293 overexpressing human TREM2 (H6) were harvested by 0.05% trypsin and incubated at 37° C. incubator for 2 hours for surface TREM2 recovery. After incubation, cells were washed with 1×PBS and FACS buffer (PBS+0.5% BSA) with human Trustain FcX solution (Biolegend, Cat #422302) was added at a density of 10^6/mL. Cells were seeded at 100,000 cells per well in a 96-well round-bottom and incubated 20 minutes at room temperature. After incubation, anti-TREM2 antibodies (100 nM) were added to the cells and the cells were incubated for 45 minutes on ice. After incubation, rat anti-h/mTREM2-APC antibody (1:100, R&D, Cat # FAB17291A) was added to the cells, and the cells were incubated for 30 minutes on ice. After incubation, cells were washed with FACS buffer three times and resuspended in 10 μL FACS buffer, then analyzed by flow cytometry (BD FACSCanto II, San Jose, Calif.). 20,000 events were obtained for each sample. The ability to compete with R&D antibody was determined by MFI analysis compared to isotype or buffer control wells.
T4 sequence (O43914 22-113 partner, one chain of several): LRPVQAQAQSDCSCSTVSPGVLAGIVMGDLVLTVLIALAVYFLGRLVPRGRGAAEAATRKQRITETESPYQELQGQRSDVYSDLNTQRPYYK

hTREM2 [6] = target: T2, hTREM2; test: Biacore T200 binding kinetics to hTREM2; conditions: analyte hTREM2
Protocol: (§1) The binding of the TREM2/TfR-binding protein RS9.F6/3C35.21.17 to TREM2 and TfR was measured using SPR on a Biacore T200 instrument. To measure TfR binding, anti-human-Fab was immobilized on a CM5 chip, and the TREM2/TfR-binding protein was captured. Full-length human TfR or human TfR apical domain at serial dilution (e.g., concentrations of 1-1000 nM) was flowed over the chip (180 second association time) and then allowed to dissociate. Fitting was performed using a 1:1 binding model. To measure TREM2 binding, anti-human-Fc antibody was immobilized on a CM5 chip, and the TREM2/TfR-binding protein was captured. A range of concentrations of recombinant TREM2-His protein were flowed over the chip, and allowed to associate and dissociate. The resulting sensograms were fitted using a 1:1 Langmuir model to estimate kon and koff (FIG. 10).
The affinities of RS9.F6/3C35.21.17 for human TREM2 and TfR were determined by surface plasmon resonance using a Biacore™ T200. Biacore Series S CM5 sensor chips were immobilized with a mixture of two monoclonal mouse anti-Fab antibodies (Human Fab capture kit from GE Healthcare). Serial 3-fold dilutions of each antigen were injected at a flow rate of 30 μL/min. The binding of the antigens to captured antibody was monitored for 30 to 180 seconds and then their dissociation was monitored for 30-300 seconds in HBS-EP+running buffer (GE, # BR100669). Binding response was corrected by subtracting the RU from a blank flow cell. A 1:1 Languir model of simultaneous fitting of kon and koff was used for kinetics analysis.

hTfR apical domain = test: Biacore T200 binding kinetics to hTfR apical domain; design: species or system human; conditions: analyte hTfR apical domain
Protocol: as §1
The affinities of RS9.F6/3C35.21.17 for human TREM2 and TfR were determined by surface plasmon resonance using a Biacore™ T200. Biacore Series S CM5 sensor chips were immobilized with a mixture of two monoclonal mouse anti-Fab antibodies (Human Fab capture kit from GE Healthcare). Serial 3-fold dilutions of each antigen were injected at a flow rate of 30 μL/min. The binding of the antigens to captured antibody was monitored for 30 to 180 seconds and then their dissociation was monitored for 30-300 seconds in HBS-EP+running buffer (GE, # BR100669). […]

T3 sequence (O43914 22-113 partner, one chain of several): as above

Row | Molecule | p-SYK signal (human macrophages [1]) | pERK1/2 signal (human macrophages [1]) | survival of human macrophages (human macrophages [2]) | liposome mediated pSyk signaling after antibody pre-incubation (TREM2 [3]) | STREM2 (soluble TREM2 (sTREM2)) | Bin by Octet (hTREM2 [4]) | Bin by FACS (TREM2 [5]) | ka (hTREM2 [6]) | kd (hTREM2 [6]) | ka (hTfR apical domain) | kd (hTfR apical domain)
1 | 54C2.A1: anti-TREM2 antibody clone; VH SEQ ID NO:22, VL SEQ ID NO:33 (antibody, V domains shown) VH: QVHLQQSGSELRSPGSSVKLSCKDFDSEVFPIAYMSWVRQKPGHGFEWIGDILPSIGRRIYGVKFEDKATLDADTVSNTAYLELNSLTSEDSAIYYCTRKDYGSLAYWGQGTLVTVSA VL: DVVMTQTPLSLPVSLGDQASISCRSSQSLVHINGNTYLQWYLQKPGQSPKLLIYKVSNRFSGVPDRFSGSGSGTDFTLRISRVEAEDLGVYFCSQSTHLPYTFGGGTKLEIK | robust | robust | increased the survival | enhanced | NC | 1 | 1 | – | – | – | –
2 | 24B4.A1: anti-TREM2 antibody clone; VH SEQ ID NO:17, VL SEQ ID NO:28 (antibody, V domains shown) VH: QVHLQQSGSELRSPGSSVKLSCKDFDSEVFPISYMSWIRQKPGHGFEWIGDILPSIGGRIYGVKFEDRATLDADTVSNTAYLELNSLTSEDSAIYYCARKDYGSLAYWGQGTLVTVSA VL: DVVMTQTPLSLPVSLGDQASISCRSSQSLVHINGNTYLQWFLQKPGQSPKLLIYKVSNRFSGVPDRFSGSGSGTAFTLKISRVEAEDLGVYFCSQSTHVPYTFGGGTKLEIK | robust | robust | increased the survival | – | NC | 1 | 1 | – | – | – | –
3 | RS9.F6/3C35.21.17_LALAPG: TREM2/TfR-binding protein: RS9.F6 Fabs on TfR-binding knob Fc and hole Fc; SEQ ID NOs:35, 91, 92 (protein) light: DVVMTQTPLSLPVSLGDQASISCRSSQSLVHNNGNTFLHWYLQKPGQSPKLLIYKVSNRFSGVPDRFSGSGSGTDFTLKISRVEAEDLGVYFCSQTTHVPPTFGGGTKLEIK heavy 1: QVQLQQPGAELVKPGASVKLSCKASGYTFTSYWMHWVKQSPGRGLEWIGRSDPTTGGTNYNEKFKTKATLTVDKPSSTAYMQLSSLTSDDSAVYYCVRTSGTGDYWGQGTSLTVSSASTKGPSVFPLAPSSKSTSGGTAALGCLVKDYFPEPVTVSWNSGALTSGVHTFPAVLQSSGLYSLSSVVTVPSSSLGTQTYICNVNHKPSNTKVDKKVEPKSCDKTHTCPPCPAPEAAGGPSVFLFPPKPKDTLMISRTPEVTCVVVDVSHEDPEVKFNWYVDGVEVHNAKTKPREEQYNSTYRVVSVLTVLHQDWLNGKEYKCKVSNKALGAPIEKTISKAKGQPREPQVYTLPPSRDELTKNQVSLWCLVKGFYPSDIAVLWESYGTEWASYKTTPPVLDSDGSFFLYSKLTVTKEEWQQGFVFSCSVMHEALHNHYTQKSLSLSPGK heavy 2: QVQLQQPGAELVKPGASVKLSCKASGYTFTSYWMHWVKQSPGRGLEWIGRSDPTTGGTNYNEKFKTKATLTVDKPSSTAYMQLSSLTSDDSAVYYCVRTSGTGDYWGQGTSLTVSSASTKGPSVFPLAPSSKSTSGGTAALGCLVKDYFPEPVTVSWNSGALTSGVHTFPAVLQSSGLYSLSSVVTVPSSSLGTQTYICNVNHKPSNTKVDKKVEPKSCDKTHTCPPCPAPEAAGGPSVFLFPPKPKDTLMISRTPEVTCVVVDVSHEDPEVKFNWYVDGVEVHNAKTKPREEQYNSTYRVVSVLTVLHQDWLNGKEYKCKVSNKALGAPIEKTISKAKGQPREPQVYTLPPSRDELTKNQVSLSCAVKGFYPSDIAVEWESNGQPENNYKTTPPVLDSDGSFFLVSKLTVDKSRWQQGNVFSCSVMHEALHNHYTQKSLSLSPGK | – | – | – | – | – | – | – | 150000 M⁻¹ s⁻¹ | 0.00038 s⁻¹ | 1.7e+06 M⁻¹ s⁻¹ | 0.19 s⁻¹
